We go through 2 molecules from patent publication US20250075006A1 (SHANDONG SIMCERE BIOPHARMACEUTICAL, published 2025).

Assay [1] concerns the target T1, Cyno GUCY2C ECD (his-tagged cynomolgus monkey GUCY2C protein extracellular domain fusion protein) (cynomolgus monkey, UniProt P25092 24-430 (human entry)).
T1 construct: also called monkey GUCY2C-his; monkey GUCY2C-His
T1 chain: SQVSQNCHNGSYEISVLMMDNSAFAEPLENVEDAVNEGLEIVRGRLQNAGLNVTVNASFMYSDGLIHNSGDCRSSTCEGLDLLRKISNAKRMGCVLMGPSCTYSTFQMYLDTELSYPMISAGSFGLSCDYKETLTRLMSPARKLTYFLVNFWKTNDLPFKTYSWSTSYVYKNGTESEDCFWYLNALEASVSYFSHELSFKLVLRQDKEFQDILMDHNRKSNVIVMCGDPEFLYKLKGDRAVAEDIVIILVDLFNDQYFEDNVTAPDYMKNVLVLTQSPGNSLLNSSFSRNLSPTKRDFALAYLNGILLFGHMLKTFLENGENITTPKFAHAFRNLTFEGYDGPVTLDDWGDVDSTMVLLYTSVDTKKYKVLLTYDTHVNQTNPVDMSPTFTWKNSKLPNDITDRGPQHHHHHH
Briefly: ELISA, plate coated with monkey GUCY2C-his, OD450.

Assay [2] addresses T1, Cyno GUCY2C ECD (his-tagged cynomolgus …). Briefly: ELISA, plate coated with monkey GUCY2C-his, OD450. As to the method:
A human GUCY2C-his protein was diluted with PBS to a final concentration of 2 μg/mL and then added to a 96-well ELISA plate at 50 μL/well. The plate was sealed with a plastic film and incubated at 4° C. overnight. The next day, the plate was washed 2 times with PBST, and a blocking buffer [PBS+2% (w/w) BSA] was added for blocking at room temperature for 2 h. The blocking buffer was discarded, and the recombinant antibody and positive and negative control antibody with a starting concentration of 100 nM serially diluted by 3 folds were added at 50 μL/well. After incubation at 37° C. for 1 h, the plate was washed 3 times with PBST. A horseradish peroxidase (HRP)—labeled secondary antibody (purchased from Merck, Cat. No. AP113P) was added for incubation at 37° C. for 1 h, and the plate was washed 5 times with PBST. A TMB substrate was added at 50 μL/well for incubation at room temperature for 10 min, and then a stop solution (1.0 M HCl) was added at 50 μL/well. The OD450 nm values were read by an ELISA plate reader (Multimode Plate Reader, EnSight, purchased from Perkin Elmer).
The monkey GUCY2C-his and murine GUCY2C-his proteins were subjected to ELISA and data analysis according to the method described in Example 4.2. The recombinant antibodies Lab306-huFc, Lab322-huFc, and Lab323-huFc have a relatively good binding activity with the monkey GUCY2C-his protein. […]

The target is the same in assay [3]. Briefly: ELISA, plate coated with monkey GUCY2C-his, OD450. A general note: An ELISA detects its analyte on a solid surface through an enzyme-linked reagent.
Assay [4] concerns the target T2, Human GUCY2C ECD (his-tagged human GUCY2C protein extracellular domain fusion protein) (human, UniProt P25092 24-430).
T2 construct: also called human GUCY2C-his; human GUCY2C-His
As to the kind of experiment: SPR Biacore, antibody on Protein A, antigen injected. The procedure: The strength of antibody-antigen binding was assayed with a BIAcore 8K instrument using a Protein A capture method. First, Protein A was immobilized onto a CM4 chip (purchased from GE, BR-1005-34) using an amino coupling method. According to the instruction of the Amine Coupling Kit (purchased from GE, BR100633), NHS and EDC were mixed with HBS-EP+pH 7.4 as a mobile phase to activate the chip for about 600 s; the Protein A was diluted to 50 μg/mL with 10 mM sodium acetate (pH 4.5) and injected for 600 s, and finally, the remaining activated sites were blocked with ethanolamine. Then, the affinity of the antibody for the antigen was assayed using a multi-cycle kinetic method; in each cycle, first, the antibody to be tested was captured using the Protein A chip, and then a single concentration of antigen protein was injected. The association and dissociation processes of the antibody with the antigen protein were recorded, and finally, the chip was regenerated using Glycine pH 1.5, wherein the mobile phase was HBS-EP+(10 mM HEPES, 150 mM NaCl, 3 mM EDTA, 0.05% surfactant P20), the flow rate was 30 μL/min, the regeneration time was 30 s, and the assay temperature was 25° C. Finally, according to a 1:1 binding model, the data were analyzed, and the antibody-antigen binding kinetics parameters, including the association rate constant Ka, the dissociation rate constant Kd, the equilibrium dissociation constant KD, and the maximum binding signal Rmax, were fitted.
After the finally obtained various humanized antibodies were expressed and purified, the affinities of the humanized antibodies for the human and monkey GUCY2C proteins were separately assayed according to the method in Example 4.6.

In assay [5] the target is T2, Human GUCY2C ECD (his-tagged human …). Briefly: BLI Gator, antibody on anti-human Fc probe, antigen in solution. As to the method:
(§1) Next, we measured the affinity of the recombinant antibody by another method, and the specific procedures were as follows: the binding strength of the antibody to the antigen was assayed by acquiring and analyzing the signal change of the reflection interference spectrum on the surface of the optical probe by using thin film interference technology. First, the probe was equilibrated for 300 s with HBS-T+pH 7.4 (0.02% tween) as the mobile phase. 2 μg/mL of the antibody to be tested was captured by an anti-human FC probe (purchased from ProbeLife, PL168-160003) for 240 s, and then antigen proteins with the concentration of 200 nM and diluted two-fold were injected. Kon for 300 s and Koff for 600 s. The association and dissociation processes of the antibody with the antigen protein were recorded, and finally, the chip was regenerated using Glycine pH 2.0 (purchased from GE), wherein the mobile phase was HBS-T+pH 7.4 (0.02% tween), the regeneration time was 5 s, and the assay temperature was 30° C. Finally, according to a 1:1 binding model, the data were analyzed, and the antibody-antigen binding kinetics parameters, including the association rate constant Ka, the dissociation rate constant Kd, the equilibrium dissociation constant KD, and the maximum binding signal Rmax, were fitted. The association rate (Ka), dissociation rate (Kd), and binding affinity (KD) of the recombinant antibodies with the human GUCY2C and monkey GUCY2C proteins are shown in Table 6.

The target of assay [6] is T1, Cyno GUCY2C ECD (his-tagged cynomolgus …). Described as above. As to the method: as §1

Like-named read-outs stand apart in the source and are kept apart here.

T2 sequence (P25092 other isoform, or with tags, fused parts or gaps): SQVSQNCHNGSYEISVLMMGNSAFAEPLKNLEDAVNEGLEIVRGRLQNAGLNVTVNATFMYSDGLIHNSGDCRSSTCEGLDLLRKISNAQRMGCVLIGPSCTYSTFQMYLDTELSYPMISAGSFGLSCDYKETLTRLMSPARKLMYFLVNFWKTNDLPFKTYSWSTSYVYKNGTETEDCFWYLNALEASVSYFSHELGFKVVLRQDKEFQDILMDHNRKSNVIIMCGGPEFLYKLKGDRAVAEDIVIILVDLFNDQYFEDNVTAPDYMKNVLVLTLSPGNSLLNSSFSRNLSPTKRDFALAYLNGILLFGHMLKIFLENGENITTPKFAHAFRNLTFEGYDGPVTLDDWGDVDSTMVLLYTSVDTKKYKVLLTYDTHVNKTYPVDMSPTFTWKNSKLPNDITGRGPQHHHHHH

B1: 5F9-hIgG1 (antibody, V domains shown)
VH: QVQLQQWGAGLLKPSETLSLTCAVFGGSFSGYYWSWIRQPPGKGLEWIGEINHRGNTNDNPSLKSRVTISVDTSKNQFALKLSSVTAADTAVYYCARERGYTYGNFDHWGQGTLVTVSS
VL: EIVMTQSPATLSVSPGERATLSCRASQSVSRNLAWYQQKPGQAPRLLIYGASTRATGIPARFSGSGSGTEFTLTIGSLQSEDFAVYYCQQYKTWPRTFGQGTNVEIKR
notes: also called positive control antibody
Regarding B1, the results for the “EC50 (read off the curve)” value in assay [1], in assay [2] and in assay [3] were approximately 40 pM, approximately 80 pM and approximately 30 pM, respectively. In addition, the Kd (usually a measure of binding affinity in units of concentration) in assay [4] amounted to 4050 pM; in assay [5] it was 1140 pM; in assay [6], 998 pM. Moreover, the koff (commonly the first-order rate constant of dissociation) in assay [4] stood at 0.000565 s⁻¹; in assay [5], 0.000448 s⁻¹; in assay [6], 0.000486 s⁻¹. In addition, the kon (in general, the rate constant with which the complex forms) in assay [4] turned out to be 140000 M⁻¹ s⁻¹; in assay [5] it was 391000 M⁻¹ s⁻¹; in assay [6] it was 487000 M⁻¹ s⁻¹.

B2: PF1608-hIgG1 (antibody, V domains shown)
VH: EVQLVESGGGLVQPGGSLRLSCAASGFTFSSYWMHWVRQAPGKGLEWIGEIKPSNELTNVHEKFKDRFTISVDKAKNSAYLQMNSLRAEDTAVYYCTRTITTTEGYWFFDVWGQGTLVTVSS
VL: DIQLTQSPSSLSASVGDRVTITCRASESVDYYGSSLLQWYQQKPGKAPKLLIYAASKLASGVPSRFSGSGSGTDFTLTISSLQPEDFATYYCQQTRKAYTFGQGTKLEIKR
notes: also called PF1608-hlgG1; positive control antibody
Turning to B2, the EC50 (read off the curve) (in general, the midpoint of the concentration-response curve) was approximately 60 pM in assay [1], approximately 80 pM in assay [2] and approximately 50 pM in assay [3]. Besides, the Kd in assay [4] was determined as 1630 pM; in assay [5], 494 pM; in assay [6] it was 256 pM. For the same molecule, the results for the koff in assay [4], in assay [5] and in assay [6] were 0.000258 s⁻¹, 0.000197 s⁻¹ and 0.000138 s⁻¹, respectively. Also, the kon in assay [4] was 158000 M⁻¹ s⁻¹; in assay [5], 400000 M⁻¹ s⁻¹; in assay [6], 540000 M⁻¹ s⁻¹.
